{
  "source": "patent US20190322765A1",
  "about": "(Hoffmann-La Roche, published 2019)",
  "binders": {"B1": {"name": "28H1 Fab-IL-2 qm-Fab (other)", "chain": "EVQLLESGGGLVQPGGSLRLSCAASGFTFSSHAMSWVRQAPGKGLEWVSAIWASGEQYYADSVKGRFTISRDNSKNTLYLQMNSLRAEDTAVYYCAKGWLGNFDYWGQGTLVTVSSASTKGPSVFPLAPSSKSTSGGTAALGCLVKDYFPEPVTVSWNSGALTSGVHTFPAVLQSSGLYSLSSVVTVPSSSLGTQTYICNVNHKPSNTKVDKKVEPKSCDSGGGGSGGGGSGGGGAPASSSTKKTQLQLEHLLLDLQMILNGINNYKNPKLTRMLTAKFAMPKKATELKHLQCLEEELKPLEEVLNGAQSKNFHLRPRDLISNINVIVLELKGSETTFMCEYADETATIVEFLNRWITFAQSIISTLTSGGGGSGGGGSGGGGEVQLLESGGGLVQPGGSLRLSCAASGFTFSSHAMSWVRQAPGKGLEWVSAIWASGEQYYADSVKGRFTISRDNSKNTLYLQMNSLRAEDTAVYYCAKGWLGNFDYWGQGTLVTVSSASTKGPSVFPLAPSSKSTSGGTAALGCLVKDYFPEPVTVSWNSGALTSGVHTFPAVLQSSGLYSLSSVVTVPSSSLGTQTYICNVNHKPSNTKVDKKVEPKSCD", "light": "EIVLTQSPGTLSLSPGERATLSCRASQSVSRSYLAWYQQKPGQAPRLLIIGASTRATGIPDRFSGSGSGTDFTLTISRLEPEDFAVYYCQQGQVIPPTFGQGTKVEIKRTVAAPSVFIFPPSDEQLKSGTASVVCLLNNFYPREAKVQWKVDNALQSGNSQESVTEQDSKDSTYSLSSTLTLSKADYEKHKVYACEVTHQGLSSPVTKSFNRGEC", "notes": "Fab-IL-2-Fab immunoconjugate against FAP with quadruple mutant IL-2; also called FAP 28H1 qm"}},
  "key": {"[1]": {"target": "T1, IL-2R βγ heterodimer on human cells (NK92 cells, NK and T cells of PBMC) (human, UniProt P14784 27-551; P31785 23-369)", "T1 sequence (looked up) 1": "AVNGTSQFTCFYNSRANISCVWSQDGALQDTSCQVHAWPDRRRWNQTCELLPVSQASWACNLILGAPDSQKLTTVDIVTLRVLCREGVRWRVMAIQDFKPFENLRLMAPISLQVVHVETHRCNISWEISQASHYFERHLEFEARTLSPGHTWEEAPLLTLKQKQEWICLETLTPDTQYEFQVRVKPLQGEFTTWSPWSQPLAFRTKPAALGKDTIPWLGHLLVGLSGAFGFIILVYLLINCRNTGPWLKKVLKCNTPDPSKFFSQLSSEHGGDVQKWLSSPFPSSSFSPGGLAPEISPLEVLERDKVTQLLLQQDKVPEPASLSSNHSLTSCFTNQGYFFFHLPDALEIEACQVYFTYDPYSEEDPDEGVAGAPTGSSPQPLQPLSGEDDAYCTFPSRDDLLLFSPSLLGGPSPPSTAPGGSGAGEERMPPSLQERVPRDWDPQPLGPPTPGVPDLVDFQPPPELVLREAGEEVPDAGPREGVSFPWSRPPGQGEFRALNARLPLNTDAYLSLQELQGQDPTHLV", "T1 sequence (looked up) 2": "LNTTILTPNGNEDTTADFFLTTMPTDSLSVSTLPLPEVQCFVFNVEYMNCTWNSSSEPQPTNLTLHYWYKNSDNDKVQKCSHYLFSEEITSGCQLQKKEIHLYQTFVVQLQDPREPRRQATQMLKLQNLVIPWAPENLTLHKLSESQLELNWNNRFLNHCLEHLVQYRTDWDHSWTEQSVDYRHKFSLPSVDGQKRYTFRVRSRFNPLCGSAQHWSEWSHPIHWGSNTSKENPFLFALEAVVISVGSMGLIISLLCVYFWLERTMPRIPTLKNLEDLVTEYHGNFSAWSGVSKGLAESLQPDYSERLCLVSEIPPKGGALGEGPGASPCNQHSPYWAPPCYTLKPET", "experiment": "cell-based or functional assay"}, "[2]": {"target": "T2, cynomolgus IL-2R α-subunit, recombinant monomeric (cynomolgus, UniProt H6WS54 22-240)", "T2 construct": "also called Cyno IL-2R α", "T2 sequence": "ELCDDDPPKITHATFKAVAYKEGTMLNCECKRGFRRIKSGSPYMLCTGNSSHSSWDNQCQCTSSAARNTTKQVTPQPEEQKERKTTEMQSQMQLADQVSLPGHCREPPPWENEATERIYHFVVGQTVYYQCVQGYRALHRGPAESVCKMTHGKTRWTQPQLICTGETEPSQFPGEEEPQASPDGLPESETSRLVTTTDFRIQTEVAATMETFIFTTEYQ", "experiment": "SPR, receptor on CM5, 25°C"}, "[3]": {"target": "T3, murine IL-2R α-subunit, recombinant monomeric (murine, UniProt P01590 22-236, limits assumed)", "T3 construct": "also called Mu IL-2R α", "T3 sequence (looked up)": "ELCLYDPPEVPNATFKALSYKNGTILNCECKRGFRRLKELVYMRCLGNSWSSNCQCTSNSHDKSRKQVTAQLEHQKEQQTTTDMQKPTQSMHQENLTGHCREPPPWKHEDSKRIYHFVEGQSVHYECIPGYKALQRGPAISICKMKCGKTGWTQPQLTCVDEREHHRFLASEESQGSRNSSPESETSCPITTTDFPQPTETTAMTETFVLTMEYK", "experiment": "SPR, receptor on CM5, 25°C"}, "[4]": {"target": "T4, human IL-2R α-subunit, monomeric, with AcTev cleavage site and Avi His tag (human)", "T4 construct": "also called Hu IL-2R α; CD25", "T4 chain": "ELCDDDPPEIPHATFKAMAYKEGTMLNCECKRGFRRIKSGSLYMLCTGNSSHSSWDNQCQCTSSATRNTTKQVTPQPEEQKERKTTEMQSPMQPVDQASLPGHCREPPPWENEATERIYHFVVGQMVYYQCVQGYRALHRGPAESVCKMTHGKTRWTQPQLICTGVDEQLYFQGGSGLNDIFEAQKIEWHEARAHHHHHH", "experiment": "SPR, receptor on CM5, 25°C"}, "[5]": {"target": "T5, human FAP expressed on stably transfected HEK293 cells (human, UniProt Q12884 1-760)", "T5 construct": "whole, on cells", "experiment": "FACS on FAP-expressing HEK cells"}, "[6]": {"target": "T6, cynomolgus IL-2R βγ heterodimer (β knob γ hole Fc fusion) (cynomolgus)", "T6 construct": "also called Cyno IL-2R βγ", "experiment": "SPR, receptor on CM5, 25°C, 1:1 fit"}, "[7]": {"target": "T7, human IL-2R βγ heterodimer, subunit-Fc knobs-into-holes fusion (human)", "T7 construct": "The entries may hold a leader peptide; also called Hu IL-2R βγ; human IL2-R β knob γ hole heterodimer", "experiment": "SPR, receptor on CM5, 25°C, 1:1 fit"}, "[8]": {"target": "T8, murine IL-2R βγ heterodimer (β knob γ hole Fc fusion) (murine, UniProt P16297 27-240; P34902 23-263)", "T8 construct": "also called Mu IL-2R βγ; mouse IL-2R βγ heterodimer; not shown: Fc knob/hole part", "T8 sequence (looked up) 1": "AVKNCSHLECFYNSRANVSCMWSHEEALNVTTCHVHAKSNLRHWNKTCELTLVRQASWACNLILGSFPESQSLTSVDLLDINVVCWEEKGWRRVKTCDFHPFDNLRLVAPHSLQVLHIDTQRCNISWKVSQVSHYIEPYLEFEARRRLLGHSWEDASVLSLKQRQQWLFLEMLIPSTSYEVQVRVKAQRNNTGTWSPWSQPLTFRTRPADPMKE", "T8 sequence (looked up) 2": "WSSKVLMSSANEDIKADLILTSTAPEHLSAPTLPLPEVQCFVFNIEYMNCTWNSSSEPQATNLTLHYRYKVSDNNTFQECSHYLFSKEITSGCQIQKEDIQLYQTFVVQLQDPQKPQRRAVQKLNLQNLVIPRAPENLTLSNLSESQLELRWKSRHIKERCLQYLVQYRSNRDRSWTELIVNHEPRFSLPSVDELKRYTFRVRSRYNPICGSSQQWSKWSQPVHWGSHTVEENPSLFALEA", "experiment": "SPR, receptor on CM5, 25°C, 1:1 fit"}, "[9]": {"target": "T6, cynomolgus IL-2R βγ heterodimer (β knob …)", "experiment": "SPR, receptor on CM5, 37°C, 1:1 fit"}, "[10]": {"target": "T7, human IL-2R βγ heterodimer, subunit-Fc …", "experiment": "SPR, receptor on CM5, 37°C, 1:1 fit"}, "[11]": {"target": "T8, murine IL-2R βγ heterodimer (β knob γ …)", "experiment": "SPR, receptor on CM5, 37°C, 1:1 fit"}, "[12]": {"target": "T7, human IL-2R βγ heterodimer, subunit-Fc …", "experiment": "SPR, receptor on CM5, 25°C, apparent KD, 1:1 fit"}, "[13]": {"target": "T5, human FAP expressed on stably …", "experiment": "FACS on HEK 293-human FAP cells, median fluorescence against concentration"}, "[14]": {"target": "T9, human DPPIV on transfected HEK 293 cells (human, UniProt P27487 1-766)", "T9 construct": "whole, on cells; also called CD26", "experiment": "FACS on HEK 293-human DPPIV cells, with HEK mock-transfected cells, cells only and sec. antibody as controls; concentration not shown"}, "[15]": {"target": "FAP on GM05389 fibroblasts", "experiment": "FACS on GM05389 fibroblasts, surface-bound construct detected with secondary antibody after the times shown (internalization analysis); concentration not shown"}},
  "note": "Values joined by “and” are separate entries in the source; they are usually repeats but may differ in a detail not shown here. Equal values may be shown once.",
  "data": [
    {"binder": "B1", "values": [
      {"measurement": "EC50 of STAT5 phosphorylation, CD8+ T cells", "setting": "[1]", "result": 20.6, "unit": "nM"},
      {"measurement": "EC50 of STAT5 phosphorylation, NK cells", "setting": "[1]", "result": 3.47, "unit": "nM"},
      {"measurement": "EC50 of STAT5 phosphorylation, Treg cells", "setting": "[1]", "result": 19.7, "unit": "nM"},
      {"measurement": "binding result", "setting": "[2]", "result": "no binding (tested: 25 nM)"},
      {"measurement": "binding result", "setting": "[3]", "result": "no binding (tested: 25 nM)"},
      {"measurement": "binding result", "setting": "[4]", "result": "no binding (tested: 300 nM)"},
      {"measurement": "EC50", "setting": "[5]", "result": 0.7, "unit": "nM"},
      {"measurement": "Kd", "setting": "[6]", "result": "8.9 nM and 8.4 nM"},
      {"measurement": "Kd", "setting": "[7]", "result": "7.5 nM and 6.9 nM"},
      {"measurement": "Kd", "setting": "[8]", "result": "66 nM and 54 nM"},
      {"measurement": "Kd", "setting": "[9]", "result": "21.3 nM and 21.2 nM"},
      {"measurement": "Kd", "setting": "[10]", "result": "14.3 nM and 14.7 nM"},
      {"measurement": "Kd", "setting": "[11]", "result": "142 nM and 106 nM"},
      {"measurement": "Kd", "setting": "[12]", "result": 11.4, "unit": "nM"},
      {"measurement": "EC50 (read off the curve)", "setting": "[13]", "result": "~10", "unit": "nM"},
      {"measurement": "binding result", "setting": "[14]", "result": "no binding"},
      {"measurement": "binding result", "setting": "[15]", "result": "binds"}
    ]}
  ]
}
